Results taken from patent US7279548B2, “Identification and isolation of novel polypeptides having WW domains and methods of using same” (Cytogen Corporation, priority 1996, dated 2007).
No end group written: not given here.

Key:
[1] = target: T1, WW domains of WWP1 expressed as GST fusion proteins (Homo sapiens, UniProt Q9H0M0); test: ELISA based cross affinity mapping, WW domains of WWP1; format: binding; conditions: GST fusion protein
T1 construct: twelve individual novel WW domains of WWP1, WWP2, WWP3 and WWP4 which were expressed as GST fusion proteins; made in house
Description: (§1) The 16 day mouse embryo cDNA expression library was diluted 1:1000 in SM solution (100 mM NaCl, 8 mM MgSOv4, 50 mM Tris HCl pH 7.5, 0.01% gelatin). To a sterile test tube, 2 μl of diluted mouse embryo library, 100 μl of 10 mM CaCl2, 100 μl of 10 mM MgCl2 and 100 μl of BL21(DE3)pLysE bacterial cells (grown overnight) were added and incubated for 30 minutes at 37° C. The contents of the tube were mixed with 3 ml of 0.6% top agarose, containing […] chloramphenicol, and poured onto a 2xYT plate (90 mm diameter). For a large primary screen, 10–20 plates were prepared with 3×10^4 pfu per plate. After 6 hours incubation at 37° C., a nitrocellulose filter soaked in 10 mM isopropyl-β-D-thiogalactopyranoside (IPTG) was overlaid on each plate and incubated 3–6 hours at 37° C. Before the filters were removed from the plates, they were marked asymmetrically with India ink in a 18 gauge syringe needle. The plates were stored at 4° C. until ready for the secondary screen. The filters were washed with PBS (137 mM NaCl, 2.7 mM KCl, 4.3 mM Na2HPO4, 1.4 mM KH2PO4)-0.05% Triton X-100 three times at room temperature, 15 minutes each wash, and then placed in a plastic bag containing non-specific blocking solution (PBS-2% BSA) for one hour. In the meantime, 1 ml of 1 mM biotinylated peptide in PBS-0.1% Tween 20 was added to 20 ml of 1 mg/ml streptavidin-alkaline phosphatase (SA-AP) in PBS-0.1% Tween 20 and incubated at 4° C. for 30 minutes. […] Excess biotin-binding sites would then be blocked by addition of 500 pmol biotin. […] Ten μl of 0.1 mM biotin would then be added, and the solution incubated for an additional 15 min.
(§2) To determine the ligand preferences of the novel WW omain-containing clones described in Sections 6.1 and 6.1.1, as well as addressing the issue of whether peptides containing PPPPY (SEQ ID NO:3)-like motifs derived from a variety of proteins could also serve as recognition units and bind to these clones, a cross affinity mapping experiment was performed (FIGS. 15A–D). The peptides shown in FIGS. 15A–D were synthesized, biotinylated, complexed with streptavidin-alkaline phosphatase, and tested in an ELISA based assay for their ability to bind to the twelve individual novel WW domains of WWP1, WWP2, WWP3 and WWP4 which were expressed as GST fusion proteins. The ELISA based cross-affinity experiments were performed essentially as described by Sparks et al. (1996, Proc. Natl. Acad. Sci. 93:1540–1544) with the following modifications. Briefly, microtiter wells were coated with 1–5 μg of fusion protein in 100 mM NaHCO3, blocked with SuperBlock TBS (Pierce) and washed four times with PBS, 0.05% Tween 20. Specific peptide-streptavidin/alkaline phosphatase complexes were added as above and unbound complexes washed five times with PBS, 0.05% Tween 20. Following addition of PNP substrate (p-nitrophenyl phosphate, Kirkegard & Perry Labs), peptide binding was quantitated after 30 min. at O.D. 405 nm. Relative binding measurements from three independent determinations were assigned to a scale as follows: O.D. units 0–0.5=(−), 0.5–1.0=(+), 1.0–2.0=(++), 2.0–3.0=(+++), >3.0=(++++). Peptide binding to human Fyn and Lyn SH3 and SH2 domains was assessed by a filter binding assay (see Section 6.1 and Sparks et al., 1996, Proc. Natl. Acad. Sci 93:1540–1544). Peptide sequences used in cross-affinity experiments correspond to segments of the following genes: RasGap (Database accession # P20936), AP-2 (P05549), p53BP-2 (U09582), IL-6Rα (P22272), voltage-gated chloride channel CLCN5 (X91906), IL-2Rγ (D111086), RSV (D10652), HTLV-1 (D13784), β-dystroglycan (L19711), Formin (X53599), amiloride-sensitive epithelial Na^+ channel ENaCα (P37089), ENaCβ (X87159) and ENaCγ (X87160), muscarinic acetylcholine receptor M4 AChR (P08173), and c-Abl (P00522). Src and Crk SH3 binding peptide sequences were derived from a phage display random peptide library screen (Section 6.1 and Sparks et al., 1996, Proc. Natl. Acad. Sci. 93:1540–1544).

[2] = target: T2, WW domains of WWP2 expressed as GST fusion proteins (Homo sapiens, UniProt O00308); test: ELISA based cross affinity mapping, WW domains of WWP2; format: binding
T2 construct: twelve individual novel WW domains of WWP1, WWP2, WWP3 and WWP4 which were expressed as GST fusion proteins; made in house
Description: as §1, §2

[3] = test system: WW domains of WWP4 expressed as GST fusion proteins; test: ELISA based cross affinity mapping, WW domains of WWP4; format: binding, human; conditions: biotinylated peptide-streptavidin/alkaline phosphatase complex; GST fusion proteins; ELISA
Description: as §1, §2

[4] = test system: WW domains of WWP1 expressed as GST fusion proteins; test: ELISA based cross affinity mapping, WW domains of WWP1; format: binding, human; conditions: biotinylated peptide-streptavidin/alkaline phosphatase complex; GST fusion proteins; ELISA
Description: as §1, §2

[5] = test system: WW domains of WWP2 expressed as GST fusion proteins; test: ELISA based cross affinity mapping, WW domains of WWP2; format: binding, human; conditions: biotinylated peptide-streptavidin/alkaline phosphatase complex; GST fusion proteins; ELISA
Description: as §1, §2

[6] = target: T3, WW domains of WWP4 expressed as GST fusion proteins (Homo sapiens, UniProt Q96PU5); test: ELISA based cross affinity mapping, WW domains of WWP4; format: binding; conditions: GST fusion protein
T3 construct: twelve individual novel WW domains of WWP1, WWP2, WWP3 and WWP4 which were expressed as GST fusion proteins; made in house
Description: as §1, §2

[7] = test system: twelve individual novel WW domains of WWP1, WWP2, WWP3 and WWP4; test: ELISA based cross affinity mapping, whole panel of novel WW domains; format: binding, human; conditions: biotinylated peptide-streptavidin/alkaline phosphatase complex, GST fusion proteins
Description: as §1, §2

Substance | binding to individual WW domain WWP1.2 [1] | binding to individual WW domain WWP2.3 ([2]; GST fusion protein) | binding to WW domains of WWP4 [3] | binding to individual WW domain WWP1.1 [1] | binding to individual WW domain WWP1.4 [1] | binding to WW domains of WWP1 [4] | binding to individual WW domain WWP2.1 ([2]; GST fusion protein) | binding to individual WW domain WWP2.2 ([2]; GST fusion protein) | binding to individual WW domain WWP2.4 ([2]; GST fusion protein) | O.D. after 30 minutes at 405 nm ([2]; individual WW domain WW2.4, GST fusion protein) | binding to WW domains of WWP2 [5] | binding to individual WW domain WWP4.1 [6] | binding to individual WW domain WWP4.2 [6] | binding to individual WW domain WWP4.3 [6] | binding to the novel WW domains (WWP1, WWP2, WWP3, WWP4 panel) [7]
WBP-1-Pro2: alanine substitution variant of WBP-1 at the second proline residue of the PPPPY motif (SGSGPGTPAPPYTVGPGY) | did not abolish binding | did not abolish binding | loss of binding activity |  |  |  |  |  |  |  |  |  |  |  | 
bWW059: biotinylated peptide corresponding to the wild-type PPPPY-like motif in the HECT domain of WWP4 (NRLDLPPYETFED; also: biotinylated, site not given here) |  |  | bind to individual WW domains | binds | binds | bind to individual WW domains | binds | binds | binds | 3.0 | bind to individual WW domains | binds | binds | binds | 
CLCN5: peptide from the voltage-gated renal chloride channel CLCN5 (X91906) (SPPLPPYTPP) |  |  |  |  | appreciable binding |  |  |  | appreciable binding |  |  |  |  |  | bound to WW domains from one or more of the four novel clones
